In patent US20160075780A1 (NB HEALTH LABORATORY, published 2016):
“And” between values parts separate entries of the source, which are not always exact repeats. Identical values can stand only once.

B1: NBG016-mAb14 (antibody, V domains shown)
VH: EIQLQQSGPELVKPGASVKVSCKASGFPFSTYNIYWVIQSHGKRLEWIGYIDPYNGGTSYNQKFRGKATLTVDKSSSTAYMHLNRLTSEDSAVYYCARRWYTYDGDWFAYWGQGTLVTVSA
VL: DIKMTQSPSSMYVSLGERVTITCKASQDINRYLSWFQQKPGKSPKTLIYRANRLLDGVPSRFSGSGSGLDYSLTISSLEYEDMGNYYCLQYDEFPFTFGSGTKLEIKR
B2: NBG016-mAb21 (antibody, mouse IgG2a)
heavy: EIQLQQSGPELVKPGASVKVSCKASGFPFSTYNIYWVIQSHGKSLEWIGYIDPYNGGTSYNQKFRGKATLTVDKSSSTAYMHLNSLTSEDSAVYYCARRWYTYDGDWFAYWGQGTLVTVSAAKTTAPSVYPLAPVCGDTTGSSVTLGCLVKGYFPEPVTLTWNSGSLSSGVHTFPAVLQSDLYTLSSSVTVTSSTWPSQSITCNVAHPASSTKVDKKIEPRGPTIKPCPPCKCPAPNLLGGPSVFIFPPKIKDVLMISLSPIVTCVVVDVSEDDPDVQISWFVNNVEVHTAQTQTHREDYNSTLRVVSALPIQHQDWMSGKEFKCKVNNKDLPAPIERTISKPKGSVRAPQVYVLPPPEEEMTKKQVTLTCMVTDFMPEDIYVEWTNNGKTELNYKNTEPVLDSDGSYFMYSKLRVEKKNWVERNSYSCSVVHEGLHNHHTTKSFSHSPGK
light: DIKMTQSPSSMYVSLGERVTITCKASQDINRYLSWFQQKPGKSPKTLIYRANRMLDGVPSRFSGSGSGQDYSLTISSLEYEDMGNYYCLQYDEFPFTFGSGTKLEIKRADAAPTVSIFPPSSEQLTSGGASVVCFLNNFYPKDINVKWKIDGSERQNGVLNSWTDQDSKDSTYSMSSTLTLTKDEYERHNSYTCEATHKTSTSPIVKSFNRNEC
notes: Mouse IgG2a, kappa, purified from hybridoma supernatant; the recombinant antibody was expressed from the same genes; The entries may carry a signal peptide; also called recombinant antibody NBG016-mAb21; anti-EP4 antibody
B3: NBG016-mAb9 (antibody, mouse IgG1, kappa, V domains shown)
VH: QVQLKESGPGLVAPSQSLSITCTVSGFSLSSYTIHWVRQPPGRGLEWLGVIWAGGSTNYNSALMSRLRISKDTSRSQVFLKVNSLQTDDSAIYYCARDDFGYGFAYWGQGTLVTVSA
VL: DVLMTQTPLSLPVSLGDQASISCRSSQSLVHTTGNTYLEWYLQKPGQSPKLLIYKISRRFSGVPDRFSGSGSGTDFTLRISRVEAADLGIYYCFQGSHIPPTFGAGTKLERKR
notes: Mouse IgG1, kappa, purified from hybridoma supernatant; the recombinant antibody (293FT supernatant) was expressed from the same genes; The entries may carry a signal peptide; also called recombinant antibody NBG016-mAb9
B4: mouse IgG1 antibody NBG016-mAb21 (antibody)
heavy: EIQLQQSGPELVKPGASVKVSCKASGFPFSTYNIYWVIQSHGKSLEWIGYIDPYNGGTSYNQKFRGKATLTVDKSSSTAYMHLNSLTSEDSAVYYCARRWYTYDGDWFAYWGQGTLVTVSSAKTTPPSVYPLAPGSAAQTNSMVTLGCLVKGYFPEPVTVTWNSGSLSSGVHTFPAVLQSDLYTLSSSVTVPSSPRPSETVTCNVAHPASSTKVDKKIVPRDCGCKPCICTVPEVSSVFIFPPKPKDVLTITLTPKVTCVVVDISKDDPEVQFSWFVDDVEVHTAQTQPREEQFNSTFRSVSELPIMHQDWLNGKEFKCRVNSAAFPAPIEKTISKTKGRPKAPQVYTIPPPKEQMAKDKVSLTCMITDFFPEDITVEWQWNGQPAENYKNTQPIMNTNGSYFVYSKLNVQKSNWEAGNTFTCSVLHEGLHNHHTEKSLSHSPGK
light: B2 light

What was measured:
[1] = target: human EP4 with V5 and 6xHIS tags at the C-terminus, on the CHO cell line stably expressing human EP4 (human, UniProt P35408 1-488); assay: cell-based or functional assay
Chain of human EP4 with V5 and 6xHIS tags at the C-terminus, on the CHO cell line stably expressing human EP4 (P35408 whole entry): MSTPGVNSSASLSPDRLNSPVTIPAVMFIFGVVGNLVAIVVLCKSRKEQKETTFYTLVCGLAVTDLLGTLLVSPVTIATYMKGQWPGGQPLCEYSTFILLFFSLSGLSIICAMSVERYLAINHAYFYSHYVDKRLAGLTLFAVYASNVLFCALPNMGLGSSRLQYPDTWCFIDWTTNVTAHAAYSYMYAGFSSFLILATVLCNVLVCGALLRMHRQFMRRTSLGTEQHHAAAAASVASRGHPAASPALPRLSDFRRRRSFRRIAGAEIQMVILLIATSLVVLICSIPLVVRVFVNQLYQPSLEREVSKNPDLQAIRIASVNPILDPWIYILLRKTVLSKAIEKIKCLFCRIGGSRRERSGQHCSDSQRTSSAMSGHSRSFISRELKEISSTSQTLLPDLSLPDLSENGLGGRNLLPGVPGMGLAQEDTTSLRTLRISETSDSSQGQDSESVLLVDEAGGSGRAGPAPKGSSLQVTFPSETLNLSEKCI

[2] = target: T1, mouse EP1 with Cycle 3 GFP at the C-terminus, on 293FT cells (mouse, UniProt P35375 1-405); assay: flow cytometry on 293FT cells transiently expressing EP-GFP
T1 construct: whole, on cells; also called mEP1; pcDNA-DEST47-mEP1; not shown: Cycle 3 GFP from the pcDNA-DEST47 vector
T1 sequence (looked up): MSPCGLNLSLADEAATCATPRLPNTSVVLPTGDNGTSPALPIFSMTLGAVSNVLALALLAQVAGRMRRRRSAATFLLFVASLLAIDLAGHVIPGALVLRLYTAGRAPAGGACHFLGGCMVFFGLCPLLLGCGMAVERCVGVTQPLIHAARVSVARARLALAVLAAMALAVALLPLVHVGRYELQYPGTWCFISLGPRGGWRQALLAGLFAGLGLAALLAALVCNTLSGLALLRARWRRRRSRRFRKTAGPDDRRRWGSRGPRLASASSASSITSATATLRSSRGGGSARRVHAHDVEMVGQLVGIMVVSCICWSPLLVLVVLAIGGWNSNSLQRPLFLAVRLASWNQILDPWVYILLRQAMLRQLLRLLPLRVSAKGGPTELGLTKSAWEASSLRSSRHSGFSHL
Protocol: (§1) The pcDNA-DEST47-hEP1, pcDNA-DEST47-hEP2, pcDNA-DEST47-hEP3, pcDNA-DEST47-hEP4, pcDNA-DEST47-mEP1, pcDNA-DEST47-mEP2, pcDNA-DEST47-mEP3, and pcDNA-DEST47-mEP4 produced in (11) above (10 μg each) were each introduced into 293FT cells, using Lipofectamin 2000. On the following day, the cells were washed with HBSS, and were then removed from the cell culture dish using an enzyme-free cell dissociation buffer. The cells were then recovered by centrifugation. The thus recovered cells are referred to as 293FT cells transiently expressing EP.
(§2) The binding test of the anti-EP4 antibody of the present invention and the 293FT transiently expressing EP cells was carried out with a flow cytometer according to the method described in (6) above. 293FT cells (5×10⁵ cells) that transiently expressed each of 8 types of PGE₂ receptor subtypes were used. As a primary antibody, 1 μg of the anti-EP4 antibody NBG016-mAb14 or NBG016-mAb21, or a mouse isotype control antibody (manufactured by BioRegend) was used. As a secondary antibody, a PE-labeled anti-mouse IgG antibody was used.

[3] = target: T2, mouse EP2 with Cycle 3 GFP at the C-terminus, on 293FT cells (mouse, UniProt Q62053 1-362); assay: as above
T2 construct: whole, on cells; also called mEP2; pcDNA-DEST47-mEP2; not shown: Cycle 3 GFP from the pcDNA-DEST47 vector
T2 sequence (Q62053 whole entry): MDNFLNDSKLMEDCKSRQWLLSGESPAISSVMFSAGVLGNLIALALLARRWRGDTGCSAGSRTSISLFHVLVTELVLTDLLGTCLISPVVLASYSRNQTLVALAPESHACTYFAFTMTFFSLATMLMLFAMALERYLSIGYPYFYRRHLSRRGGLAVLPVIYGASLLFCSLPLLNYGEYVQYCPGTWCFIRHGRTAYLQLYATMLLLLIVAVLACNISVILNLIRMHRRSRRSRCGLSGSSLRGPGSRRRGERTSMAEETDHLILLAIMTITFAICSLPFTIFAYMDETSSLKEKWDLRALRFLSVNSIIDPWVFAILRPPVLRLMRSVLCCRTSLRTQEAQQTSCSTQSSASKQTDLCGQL
Protocol: as §1, §2

[4] = target: T3, mouse EP3 with Cycle 3 GFP at the C-terminus, on 293FT cells (mouse, UniProt P30557 1-365); assay: as above
T3 construct: whole, on cells; also called mEP3; pcDNA-DEST47-mEP3; not shown: Cycle 3 GFP from the pcDNA-DEST47 vector
T3 sequence (looked up): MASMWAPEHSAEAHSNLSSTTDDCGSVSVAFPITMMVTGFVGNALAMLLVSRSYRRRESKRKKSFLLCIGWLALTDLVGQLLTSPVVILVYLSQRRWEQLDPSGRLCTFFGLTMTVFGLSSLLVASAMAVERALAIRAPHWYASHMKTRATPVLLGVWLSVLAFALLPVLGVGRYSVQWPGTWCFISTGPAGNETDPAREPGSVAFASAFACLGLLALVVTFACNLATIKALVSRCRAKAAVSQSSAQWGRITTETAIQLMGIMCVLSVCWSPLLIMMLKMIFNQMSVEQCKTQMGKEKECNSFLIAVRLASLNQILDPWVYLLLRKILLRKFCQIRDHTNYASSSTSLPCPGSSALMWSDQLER
Protocol: as §1, §2

[5] = target: T4, mouse EP4 with Cycle 3 GFP at the C-terminus, on 293FT cells (mouse, UniProt P32240 1-513); assay: as above
T4 construct: whole, on cells; also called mEP4; pcDNA-DEST47-mEP4; not shown: Cycle 3 GFP from the pcDNA-DEST47 vector
T4 sequence (P32240 whole entry): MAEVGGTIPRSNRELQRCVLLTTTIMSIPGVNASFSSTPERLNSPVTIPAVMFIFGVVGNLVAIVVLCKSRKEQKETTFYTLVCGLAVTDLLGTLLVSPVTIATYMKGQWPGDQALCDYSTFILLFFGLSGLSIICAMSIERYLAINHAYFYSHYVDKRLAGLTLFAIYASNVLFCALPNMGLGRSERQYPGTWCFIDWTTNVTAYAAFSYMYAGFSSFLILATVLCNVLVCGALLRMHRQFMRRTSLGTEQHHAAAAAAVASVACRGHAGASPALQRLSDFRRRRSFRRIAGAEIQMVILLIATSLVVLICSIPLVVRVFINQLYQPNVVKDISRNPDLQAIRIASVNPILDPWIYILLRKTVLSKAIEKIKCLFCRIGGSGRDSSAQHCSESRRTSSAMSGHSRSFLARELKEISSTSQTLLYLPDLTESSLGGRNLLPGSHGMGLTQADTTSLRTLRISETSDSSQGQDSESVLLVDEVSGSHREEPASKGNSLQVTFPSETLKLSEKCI
Protocol: as §1, §2

[6] = target: T5, human EP1 with Cycle 3 GFP at the C-terminus, on 293FT cells (human, UniProt P34995 1-402); assay: as above
T5 construct: whole, on cells; also called hEP1; pcDNA-DEST47-hEP1; not shown: Cycle 3 GFP from the pcDNA-DEST47 vector
T5 sequence (looked up): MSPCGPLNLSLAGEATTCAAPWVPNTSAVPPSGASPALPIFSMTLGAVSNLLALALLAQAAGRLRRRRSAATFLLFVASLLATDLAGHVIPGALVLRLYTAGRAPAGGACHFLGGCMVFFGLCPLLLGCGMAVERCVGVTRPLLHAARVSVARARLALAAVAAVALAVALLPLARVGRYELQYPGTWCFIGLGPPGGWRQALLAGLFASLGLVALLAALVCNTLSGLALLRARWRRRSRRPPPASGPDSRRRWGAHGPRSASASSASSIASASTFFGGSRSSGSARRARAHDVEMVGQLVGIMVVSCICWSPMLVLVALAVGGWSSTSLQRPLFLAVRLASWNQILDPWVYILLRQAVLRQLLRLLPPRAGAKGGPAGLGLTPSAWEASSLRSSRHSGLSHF
Protocol: as §1, §2

[7] = target: T6, human EP2 with Cycle 3 GFP at the C-terminus, on 293FT cells (human, UniProt P43116 1-358); assay: as above
T6 construct: whole, on cells; also called hEP2; pcDNA-DEST47-hEP2; not shown: Cycle 3 GFP from the pcDNA-DEST47 vector
T6 sequence (P43116 whole entry): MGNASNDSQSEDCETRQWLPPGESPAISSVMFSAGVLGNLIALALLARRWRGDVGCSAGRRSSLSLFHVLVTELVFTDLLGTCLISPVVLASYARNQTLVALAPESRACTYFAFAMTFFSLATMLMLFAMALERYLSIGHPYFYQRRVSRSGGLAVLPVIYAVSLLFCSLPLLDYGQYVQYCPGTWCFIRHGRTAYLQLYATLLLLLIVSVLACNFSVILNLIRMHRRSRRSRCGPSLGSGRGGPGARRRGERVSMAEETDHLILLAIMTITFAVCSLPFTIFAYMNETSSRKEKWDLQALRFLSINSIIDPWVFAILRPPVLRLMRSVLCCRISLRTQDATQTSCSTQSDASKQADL
Protocol: as §1, §2

Row | Binder | IC50 of inhibition of PGE2-induced cAMP production in the CHO cell line stably expressing human EP4 (5×10^-11 M PGE2) [1] | binding result [2] | binding result [3] | binding result [4] | binding result [5] | binding result [6] | binding result [7] | IC50 of inhibition of PGE2-induced cAMP production in the CHO cell line stably expressing human EP4 (1.5×10^-10 M PGE2) [1]
1 | B1 | 0.15 µg/mL and ~1 nM | – | – | – | – | – | – | –
2 | B2 | – | no binding (tested: 1 µg per 5×10^5 cells) | no binding (tested: 1 µg per 5×10^5 cells) | no binding (tested: 1 µg per 5×10^5 cells) | no binding (tested: 1 µg per 5×10^5 cells) | no binding (tested: 1 µg per 5×10^5 cells) | no binding (tested: 1 µg per 5×10^5 cells) | –
3 | B3 | – | no binding | no binding | no binding | no binding | no binding | no binding | 4.6 µg/mL and ~28.8 nM
4 | B4 | – | – | – | – | – | – | – | 1.1 µg/mL and ~6.9 nM
